In US20250026827A1 (Alector, published 2025) one finds binding result, FOB and Kd data, which are given here for nine molecules.

Assay [1] deals with T1, human SIRPα domain 1 (D1) Fc fusion (human, UniProt P78324 32-149).
T1 construct: also called human SIRPα D1-Fc; Human SIRPα Fc; not shown: C-terminal human IgG1 Fc
The assay is described as follows: Octet.

Assay [2] deals with T2, mouse SIRPα D1-Fc (mouse, UniProt P97797 32-150, limits assumed).
T2 construct: domain: D1
T2 sequence (looked up): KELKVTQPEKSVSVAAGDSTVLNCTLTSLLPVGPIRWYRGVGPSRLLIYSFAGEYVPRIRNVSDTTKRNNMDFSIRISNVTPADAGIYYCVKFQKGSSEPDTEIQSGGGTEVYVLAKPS
The assay is described as follows: Octet.

Assay [3] concerns the target T3, mouse SIRPβ1 on CHO cells (mouse).
T3 construct: Whole entry
T3 chain: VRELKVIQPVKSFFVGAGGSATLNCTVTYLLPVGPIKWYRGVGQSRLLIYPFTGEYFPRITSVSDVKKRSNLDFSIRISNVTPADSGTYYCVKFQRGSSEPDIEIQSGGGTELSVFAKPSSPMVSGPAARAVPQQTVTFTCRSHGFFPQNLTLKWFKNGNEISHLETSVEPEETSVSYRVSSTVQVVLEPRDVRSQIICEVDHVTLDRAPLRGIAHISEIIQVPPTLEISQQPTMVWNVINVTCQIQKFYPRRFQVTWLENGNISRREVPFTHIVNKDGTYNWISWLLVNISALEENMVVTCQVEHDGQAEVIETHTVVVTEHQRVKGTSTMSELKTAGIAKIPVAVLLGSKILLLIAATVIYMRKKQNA
Briefly: flow cytometry. Background: Flow cytometry measures light scatter and fluorescence of single cells or particles in a stream.
Protocol: (§1) Initial characterization of anti-SIRPβ1 antibodies involved determining their ability to bind cell lines expressing human or mouse SIRPβ1. Cells were harvested, plated at 10⁶/ml in a 96-well plate, washed, and incubated in 100 μl FACS buffer containing 1 μg/ml anti-SIRPβ1 antibody for 0.5 hour on ice. Cells were then washed twice and incubated in 100 μl FACS buffer containing 0.5 μg/ml PE-conjugated secondary antibody for 30 minutes on ice. Cells were washed twice in cold FACS buffer and acquired on a BD FACS Canto. Data analysis and calculation of mean fluorescence intensity (MFI) values or 00 positive cells was performed with FlowJo (TreeStar) software version 10.0.7.
(§2) As a negative control, the anti-SIRPβ1 antibodies were also screened for surface binding to CHO cells overexpressing recombinant mouse SIRPβ31. […] Given the high sequence similarity between receptors of the SIRPβ family, anti-SIRPβ1 antibodies were also screened for cross-reactivity to human and mouse SIRPα.

Assay [4] deals with T4, mouse SIRPα on cells (mouse, UniProt P97797 32-513).
T4 construct: whole, on cells
T4 sequence (looked up): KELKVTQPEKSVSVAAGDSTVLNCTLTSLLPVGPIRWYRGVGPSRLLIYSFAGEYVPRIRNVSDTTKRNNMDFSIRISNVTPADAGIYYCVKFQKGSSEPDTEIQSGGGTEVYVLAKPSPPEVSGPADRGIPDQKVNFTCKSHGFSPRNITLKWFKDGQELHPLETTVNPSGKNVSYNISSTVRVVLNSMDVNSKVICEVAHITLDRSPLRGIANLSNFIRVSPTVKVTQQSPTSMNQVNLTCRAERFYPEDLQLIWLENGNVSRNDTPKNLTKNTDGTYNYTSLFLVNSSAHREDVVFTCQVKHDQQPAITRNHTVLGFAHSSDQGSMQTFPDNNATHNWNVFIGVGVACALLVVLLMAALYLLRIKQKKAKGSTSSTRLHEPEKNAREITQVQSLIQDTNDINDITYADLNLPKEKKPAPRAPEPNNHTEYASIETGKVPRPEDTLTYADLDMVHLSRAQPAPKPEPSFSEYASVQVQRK
Briefly: flow cytometry.
Protocol: as §1, §2

Assay [5] concerns the target T5, human SIRPα on cells (human, UniProt P78324 31-504).
T5 construct: Whole entry
Briefly: flow cytometry.
Protocol: as §1, §2

Assay [6] addresses T6, human SIRPβ1 isoform 1 on cells (human, UniProt O00241 30-398).
T6 construct: On CHO cells (low level), on BWZ/BW5147.G.1.4 cells (reporter cells co-express human DAP12) or on primary human myeloid cells; also called huSIRPβ1; BWZ-huSIRPβ1
The assay is described as follows: flow cytometry.
Protocol: as §1, §2

In assay [7] the target is T7, human SIRPβ1 domain 1 (D1) Fc fusion (human, UniProt O00241 30-148).
T7 construct: Made in HEK293/T cells with a heterologous signal peptide; also called Human SIRPβ1 D1-Fc; Human SIRPβ1-Fc; not shown: C-terminal human IgG1 Fc
T7 sequence (O00241 30-148 limits assumed): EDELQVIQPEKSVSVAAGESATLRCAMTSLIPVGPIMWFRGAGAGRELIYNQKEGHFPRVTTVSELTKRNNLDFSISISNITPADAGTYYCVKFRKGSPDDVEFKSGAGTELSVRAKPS
The assay is described as follows: Octet, IgG avid.

The target in assay [8] is T3, mouse SIRPβ1 on CHO cells. The assay is described as follows: flow cytometry.
The target of assay [9] is T4, mouse SIRPα on cells. The assay is described as follows: flow cytometry. This is another data set of the same source.
Assay [10] has as its target T5, human SIRPα on cells. The assay is described as follows: flow cytometry. The source holds these as a separate data set.
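Wherever FOB is given: antibodies tested at 1 µg/ml for 30 min on ice against receptor-expressing cells, detected with a PE-labelled secondary antibody, read as mean fluorescence intensity relative to background.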

T6 sequence (O00241 30-398): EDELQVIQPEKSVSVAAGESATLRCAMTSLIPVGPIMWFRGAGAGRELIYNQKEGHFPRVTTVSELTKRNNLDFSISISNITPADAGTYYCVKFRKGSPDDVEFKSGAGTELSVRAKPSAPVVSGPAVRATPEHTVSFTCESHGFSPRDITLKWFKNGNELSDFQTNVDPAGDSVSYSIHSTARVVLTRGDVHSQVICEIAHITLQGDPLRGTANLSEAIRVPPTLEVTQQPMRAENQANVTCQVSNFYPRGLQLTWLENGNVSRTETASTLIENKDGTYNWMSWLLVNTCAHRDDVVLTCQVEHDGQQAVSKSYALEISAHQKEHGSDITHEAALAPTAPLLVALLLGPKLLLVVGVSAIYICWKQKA

B1: SB-6 (antibody, V domains shown)
VH: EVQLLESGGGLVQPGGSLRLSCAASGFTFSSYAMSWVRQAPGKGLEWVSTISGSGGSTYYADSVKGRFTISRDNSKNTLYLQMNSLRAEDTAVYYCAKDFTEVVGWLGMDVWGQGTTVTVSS
VL: EIVLTQSPGTLSLSPGERATLSCRASQSVSSSYLAWYQQKPGQAPRLLIYGASSRATGIPDRFSGSGSGTDFTLTISRLEPEDFAVYYCQQSGHLPITFGGGTKVEIK
notes: IgG
The term Kd denotes a measure of binding affinity in units of concentration. A higher Kd goes with weaker binding. On to B1, for which the binding result is “no binding (tested: 100 nM)” in assay [1]; “no binding (tested: 100 nM)” in [2]; “no binding (tested: 1 ug/ml)” in assay [8]; “no binding (tested: 1 ug/ml)” in assay [9]; “no binding (tested: 1 ug/ml)” in assay [10]. In addition, the FOB in assay [3] amounted to 1.2 fold over background; in [4] it was 1 fold over background; in [5], 1.2 fold over background; in assay [6], 4.3 fold over background. The molecule further had a Kd in assay [7] of 1.3 nM.

B2: SB-28 (antibody, V domains shown)
VH: QLQLQESGPGLVKPSETLSLTCTVSGGSISSSSYYWGWIRQPPGKGLEWIGSISYSGSTYYNPSLKSRVTISVDTSKNQFSLKLSSVTAADTAVYYCARDPRDYSSGSSGGGWGYFDLWGRGTLVTVSS
VL: EIVLTQSPGTLSLSPGERATLSCRASQSVSSSYLAWYQQKPGQAPRLLIYGASSRATGIPDRFSGSGSGTDFTLTISRLEPEDFAVYYCQQDGNFPLTFGGGTKVEIK
notes: IgG
Regarding B2, the binding result is given as “no binding (tested: 100 nM)” in assay [1]; “no binding (tested: 100 nM)” in [2]; “no binding (tested: 1 ug/ml)” in assay [8]; “no binding (tested: 1 ug/ml)” in assay [9]; “no binding (tested: 1 ug/ml)” in assay [10]. The FOB stood at 1.2 fold over background in [3], 1 fold over background in [4], 2.1 fold over background in [5] and 4.1 fold over background in [6]. The Kd in assay [7] turned out to be 5.59 nM.

B3: SB-29 (antibody, V domains shown)
VH: QVQLVQSGAEVKKPGSSVKVSCKASGGTFSSYAISWVRQAPGQGLEWMGSIIPIFGTANYAQKFQGRVTITADESTSTAYMELSSLRSEDTAVYYCARAPYGSSSGYGYFDLWGRGTLVTVSS
VL: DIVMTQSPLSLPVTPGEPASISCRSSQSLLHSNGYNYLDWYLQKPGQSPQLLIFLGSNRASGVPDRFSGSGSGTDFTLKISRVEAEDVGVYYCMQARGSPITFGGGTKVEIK
notes: IgG
In the case of B3, the binding result in assay [1] is reported as “no binding (tested: 100 nM)”; in [2], “no binding (tested: 100 nM)”; in [8], “no binding (tested: 1 ug/ml)”; in assay [9] it was “no binding (tested: 1 ug/ml)”; in assay [10] it was “no binding (tested: 1 ug/ml)”. In addition, the FOB in assay [3] was 1.2 fold over background; in assay [4] it was 0.9 fold over background; in assay [5], 1.9 fold over background; in assay [6], 1.8 fold over background. Besides, the dissociation constant Kd in [7] was determined as 10.7 nM.

B4: SB-49 (antibody, V domains shown)
VH: QLQLQESGPGLVKPSETLSLTCTVSGGSISSSDYYWGWIRQPPGKGLEWIGSIYYSGSTYYNPSLKSRVTISVDTSKNQFSLKLSSVTAADTAVYYCARGPTGYKDKWRYYYGMDVWGQGTTVTVSS
VL: DIQMTQSPSSLSASVGDRVTITCQASQDITNYLNWYQQKPGKAPKLLIYDASNLETGVPSRFSGSGSGTDFTFTISSLQPEDIATYYCQQYFHPPLTFGGGTKVEIK
notes: IgG
On to B4, for which the figures for the binding result in assay [2], in assay [8] and in assay [9] were “no binding (tested: 100 nM)”, “no binding (tested: 1 ug/ml)” and “no binding (tested: 1 ug/ml)”, respectively. Also, the FOB in assay [3] came to 1.2 fold over background; in assay [4], 1.7 fold over background; in assay [5], 2.7 fold over background; in assay [6], 3.4 fold over background. Moreover, the Kd in assay [7] was determined as 4.39 nM.

B5: SB-17 (antibody, V domains shown)
VH: QVQLVQSGAEVKKPGASVKVSCKASGYTFTSYGISWVRQAPGQGLEWMGWISAYNGNTNYAQKLQGRVTMTTDTSTSTAYMELRSLRSDDTAVYYCARGPLLYGDYHVRYGMDVWGQGTTVTVSS
VL: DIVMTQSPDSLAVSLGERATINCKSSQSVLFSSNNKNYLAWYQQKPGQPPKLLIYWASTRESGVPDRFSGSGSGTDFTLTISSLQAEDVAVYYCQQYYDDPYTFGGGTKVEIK
notes: IgG
Take B5: the binding result in [1] is listed as “no binding (tested: 100 nM)”; in [2], “no binding (tested: 100 nM)”; in assay [8], “no binding (tested: 1 ug/ml)”; in assay [9], “no binding (tested: 1 ug/ml)”; in assay [10] it was “no binding (tested: 1 ug/ml)”. Moreover, the FOB in assay [3] was 1.3 fold over background; in assay [4], 1.6 fold over background; in assay [5], 2.5 fold over background; in assay [6], 2.8 fold over background. This molecule also showed a Kd in assay [7] of 3.32 nM.

B6: SB-21 (antibody, V domains shown)
VH: QVQLVQSGAEVKKPGASVKVSCKASGYTFTSNGISWVRQAPGQGLEWMGWISAYNGNTNYAQKLQGRVTMTTDTSTSTAYMELRSLRSDDTAVYYCARVGNMDQEYFDLWGRGTLVTVSS
VL: not shown
notes: IgG
As to B6, the binding result in assay [1] was “no binding (tested: 100 nM)”; in assay [2] it was “no binding (tested: 100 nM)”; in assay [8] it was “no binding (tested: 1 ug/ml)”; in assay [9], “no binding (tested: 1 ug/ml)”; in assay [10] it was “no binding (tested: 1 ug/ml)”. The FOB in assay [3] was 1.3 fold over background; in [4], 1.2 fold over background; in [5] it was 2 fold over background; in assay [6] it was 1.9 fold over background. The molecule further registered a Kd in [7] of 5.86 nM.

B7: SB-19 (antibody, V domains shown)
VH: QVQLVQSGAEVKKPGSSVKVSCKASGGTFSSYAISWVRQAPGQGLEWMGGIIPIFGTANYAQKFQGRVTITADESTSTAYMELSSLRSEDTAVYYCARDGGGGYAYEYFQHWGQGTLVTVSS
VL: not shown
notes: IgG
Turning to B7, the binding result in assay [1] is reported as “no binding (tested: 100 nM)”; in [2], “no binding (tested: 100 nM)”; in [8], “no binding (tested: 1 ug/ml)”; in [9] it was “no binding (tested: 1 ug/ml)”; in assay [10] it was “no binding (tested: 1 ug/ml)”. The FOB in [3] came to 1.3 fold over background; in assay [4], 0.9 fold over background; in [5], 2.2 fold over background; in assay [6] it was 1.8 fold over background. Moreover, binding in assay [7] was characterised by a dissociation constant (Kd) of 7.41 nM.

B8: SB-26 (antibody, V domains shown)
VH: QVQLVQSGAEVKKPGSSVKVSCKASGGTFSSYAISWVRQAPGQGLEWMGGIIPIFGTANYAQKFQGRVTITADESTSTAYMELSSLRSEDTAVYYCARDGSAGRQEHGMDVWGQGTTVTVSS
VL: not shown
notes: IgG
In the case of B8, the binding result is recorded as “no binding (tested: 100 nM)” in assay [1]; “no binding (tested: 100 nM)” in assay [2]; “no binding (tested: 1 ug/ml)” in assay [8]; “no binding (tested: 1 ug/ml)” in assay [9]; “no binding (tested: 1 ug/ml)” in assay [10]. In addition, the FOB in [3] stood at 1.3 fold over background; in assay [4] it was 1.2 fold over background; in assay [5], 2.1 fold over background; in assay [6] it was 2 fold over background. Also, the Kd in [7] came to 6.17 nM.

B9: SB-15 (antibody, V domains shown)
VH: QLQLQESGPGLVKPSETLSLTCTVSGGSISSNSYYWGWIRQPPGKGLEWIGSIYYSGSTYYNPSLKSRVTISVDTSKNQFSLKLSSVTAADTAVYYCAREVGAPPSYPFDIWGQGTMVTVSS
VL: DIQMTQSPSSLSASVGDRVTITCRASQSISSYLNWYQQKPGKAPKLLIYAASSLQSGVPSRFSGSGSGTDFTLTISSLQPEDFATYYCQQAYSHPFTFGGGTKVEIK
notes: IgG
For the molecule B9, the binding result in assay [1] is “no binding (tested: 100 nM)”; in assay [2], “no binding (tested: 100 nM)”; in [8], “no binding (tested: 1 ug/ml)”; in [9], “no binding (tested: 1 ug/ml)”; in assay [10] it was “no binding (tested: 1 ug/ml)”. In addition, the FOB came out at 1.3 fold over background in assay [3], 1.4 fold over background in assay [4], 2.2 fold over background in assay [5] and 8 fold over background in assay [6]. Moreover, the Kd in assay [7] stood at 3.45 nM.
